Source: article PMC12693483, “A screen for synthetic genetic interactions with the Saccharomyces cerevisiae hrq1ΔN allele”

Biological target: T1, Hrq1 (Saccharomyces cerevisiae, UniProt Q05549 1-1077)
T1 sequence: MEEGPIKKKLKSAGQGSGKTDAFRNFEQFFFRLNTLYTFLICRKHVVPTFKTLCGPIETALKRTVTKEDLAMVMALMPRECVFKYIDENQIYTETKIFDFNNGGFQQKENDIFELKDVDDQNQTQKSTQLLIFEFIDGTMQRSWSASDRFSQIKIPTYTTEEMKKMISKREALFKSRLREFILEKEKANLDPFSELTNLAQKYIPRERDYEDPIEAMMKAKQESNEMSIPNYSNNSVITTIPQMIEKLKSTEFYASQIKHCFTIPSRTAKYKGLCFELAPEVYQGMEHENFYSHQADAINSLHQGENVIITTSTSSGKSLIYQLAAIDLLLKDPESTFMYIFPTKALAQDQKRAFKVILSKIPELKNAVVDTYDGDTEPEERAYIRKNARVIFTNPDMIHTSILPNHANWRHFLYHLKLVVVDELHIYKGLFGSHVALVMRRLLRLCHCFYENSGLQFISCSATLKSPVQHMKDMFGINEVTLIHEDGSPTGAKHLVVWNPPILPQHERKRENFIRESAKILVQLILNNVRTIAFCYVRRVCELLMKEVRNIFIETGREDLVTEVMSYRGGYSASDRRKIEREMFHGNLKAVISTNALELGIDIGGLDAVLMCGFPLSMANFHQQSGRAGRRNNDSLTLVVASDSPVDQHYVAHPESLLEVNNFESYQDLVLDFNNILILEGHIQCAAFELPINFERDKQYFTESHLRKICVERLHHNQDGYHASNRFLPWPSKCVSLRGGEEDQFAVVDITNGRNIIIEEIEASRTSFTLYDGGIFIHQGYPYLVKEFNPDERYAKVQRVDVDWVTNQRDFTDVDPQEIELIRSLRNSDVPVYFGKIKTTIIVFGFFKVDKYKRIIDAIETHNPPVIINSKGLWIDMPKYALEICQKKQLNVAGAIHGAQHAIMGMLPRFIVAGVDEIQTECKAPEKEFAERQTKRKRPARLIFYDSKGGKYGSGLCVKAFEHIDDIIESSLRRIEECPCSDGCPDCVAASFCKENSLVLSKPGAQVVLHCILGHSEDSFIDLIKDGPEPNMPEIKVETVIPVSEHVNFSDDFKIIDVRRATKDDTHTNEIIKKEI
Experiment: EMSA; 0.2-5 nM protein; 7.5 mM MgOAc; no ATP stated; EMSA: 0.1 nM labelled DNA, 25 mM Na-HEPES pH 8.0, 5% glycerol, 50 mM NaOAc pH 7.6, 150 µM NaCl, 7.5 mM MgOAc, 0.01% Tween-20, 30 min at 30 °C; 8% 19:1 gel in 1x TBE
Conditions: protein: recombinant; label: 5'-32P; single strand

TTTTTTTTTTTTTTTTTTTTTTTTTTTTTT (ssDNA) [poly(dT) 30mer]
binding result: binds
